Reference: publication PMC6134028, “Mutant FUS causes DNA ligation defects to inhibit oxidative damage repair in Amyotrophic Lateral Sclerosis” (Nature Communications, 2018)

Key:
Flag-FUS-R521H (human) = Flag-FUS-R521H (human) (UniProt P35637); assay: proximity ligation; PLA of Flag vs XRCC1, LigIII or PARP-1 in GO-treated SH-SY5Y cells expressing Flag-tagged WT or R521H FUS
[1] = molecular target: XRCC1/LigIII complex, purified from insect cells (UniProt P18887 1-633; P49916 88-1009); assay: cell-based or functional assay
Chain of XRCC1/LigIII complex, purified from insect cells (P18887 whole entry, chain 1 of 2): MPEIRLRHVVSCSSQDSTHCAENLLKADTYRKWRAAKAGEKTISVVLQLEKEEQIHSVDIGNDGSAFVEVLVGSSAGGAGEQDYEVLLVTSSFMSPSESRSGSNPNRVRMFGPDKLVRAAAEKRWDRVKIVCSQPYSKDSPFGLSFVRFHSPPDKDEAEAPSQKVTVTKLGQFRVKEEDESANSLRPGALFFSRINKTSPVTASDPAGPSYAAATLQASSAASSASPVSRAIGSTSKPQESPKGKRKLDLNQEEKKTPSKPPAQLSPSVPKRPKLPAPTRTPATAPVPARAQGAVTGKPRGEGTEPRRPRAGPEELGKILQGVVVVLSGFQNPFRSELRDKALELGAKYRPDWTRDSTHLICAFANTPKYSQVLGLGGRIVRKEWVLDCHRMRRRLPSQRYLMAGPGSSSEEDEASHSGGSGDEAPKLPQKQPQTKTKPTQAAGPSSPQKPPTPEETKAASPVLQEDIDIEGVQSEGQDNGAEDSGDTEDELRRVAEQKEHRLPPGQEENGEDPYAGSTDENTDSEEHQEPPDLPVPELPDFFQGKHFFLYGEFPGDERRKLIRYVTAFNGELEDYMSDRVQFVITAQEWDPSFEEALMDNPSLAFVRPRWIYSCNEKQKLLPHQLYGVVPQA
Chain of XRCC1/LigIII complex, purified from insect cells (P49916 88-1009, chain 2 of 2): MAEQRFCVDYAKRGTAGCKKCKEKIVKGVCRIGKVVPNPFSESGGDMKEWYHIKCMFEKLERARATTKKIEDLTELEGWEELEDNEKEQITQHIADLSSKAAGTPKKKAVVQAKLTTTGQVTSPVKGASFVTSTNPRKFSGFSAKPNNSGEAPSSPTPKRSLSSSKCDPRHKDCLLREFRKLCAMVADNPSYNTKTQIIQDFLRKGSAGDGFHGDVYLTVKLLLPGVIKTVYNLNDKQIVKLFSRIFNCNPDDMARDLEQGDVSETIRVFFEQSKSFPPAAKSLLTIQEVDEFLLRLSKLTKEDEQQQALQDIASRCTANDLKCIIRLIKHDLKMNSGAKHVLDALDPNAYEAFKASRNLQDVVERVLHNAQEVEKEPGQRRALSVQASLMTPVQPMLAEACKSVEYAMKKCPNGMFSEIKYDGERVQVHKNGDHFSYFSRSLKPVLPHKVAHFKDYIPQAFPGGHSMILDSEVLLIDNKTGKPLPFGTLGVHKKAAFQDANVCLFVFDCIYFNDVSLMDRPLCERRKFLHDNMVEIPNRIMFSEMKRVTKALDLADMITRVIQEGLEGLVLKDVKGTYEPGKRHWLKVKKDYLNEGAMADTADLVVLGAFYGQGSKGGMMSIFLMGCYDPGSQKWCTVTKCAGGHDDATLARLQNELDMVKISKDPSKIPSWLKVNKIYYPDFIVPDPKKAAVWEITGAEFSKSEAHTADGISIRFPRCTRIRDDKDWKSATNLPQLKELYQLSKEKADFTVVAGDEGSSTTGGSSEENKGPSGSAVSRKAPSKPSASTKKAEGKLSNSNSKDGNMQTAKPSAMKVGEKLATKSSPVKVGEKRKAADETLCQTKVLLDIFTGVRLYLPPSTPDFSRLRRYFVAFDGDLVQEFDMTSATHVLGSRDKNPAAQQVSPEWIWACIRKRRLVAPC

[2] = molecular target: T1, PARP-1, His-tag protein, purified (human, UniProt P09874 1-1014); assay: pull-down; GST-FUS with the partner at 4 C overnight on glutathione affinity gel, washed three times with TEN buffer (20 mM Tris-HCl pH 7.4, 0.1 mM EDTA, 100 mM NaCl), immunoblot; for XRCC1 also in the presence of PARP-1 and NAD+ (PARylation enhanced the interaction); conditions: both partners purified
T1 construct: human PARP1, recombinant; also called human PARP1 purified protein; source: expressed as His-tag protein, purified (Ni-agarose column, cation exchange)
T1 sequence (P09874 whole entry): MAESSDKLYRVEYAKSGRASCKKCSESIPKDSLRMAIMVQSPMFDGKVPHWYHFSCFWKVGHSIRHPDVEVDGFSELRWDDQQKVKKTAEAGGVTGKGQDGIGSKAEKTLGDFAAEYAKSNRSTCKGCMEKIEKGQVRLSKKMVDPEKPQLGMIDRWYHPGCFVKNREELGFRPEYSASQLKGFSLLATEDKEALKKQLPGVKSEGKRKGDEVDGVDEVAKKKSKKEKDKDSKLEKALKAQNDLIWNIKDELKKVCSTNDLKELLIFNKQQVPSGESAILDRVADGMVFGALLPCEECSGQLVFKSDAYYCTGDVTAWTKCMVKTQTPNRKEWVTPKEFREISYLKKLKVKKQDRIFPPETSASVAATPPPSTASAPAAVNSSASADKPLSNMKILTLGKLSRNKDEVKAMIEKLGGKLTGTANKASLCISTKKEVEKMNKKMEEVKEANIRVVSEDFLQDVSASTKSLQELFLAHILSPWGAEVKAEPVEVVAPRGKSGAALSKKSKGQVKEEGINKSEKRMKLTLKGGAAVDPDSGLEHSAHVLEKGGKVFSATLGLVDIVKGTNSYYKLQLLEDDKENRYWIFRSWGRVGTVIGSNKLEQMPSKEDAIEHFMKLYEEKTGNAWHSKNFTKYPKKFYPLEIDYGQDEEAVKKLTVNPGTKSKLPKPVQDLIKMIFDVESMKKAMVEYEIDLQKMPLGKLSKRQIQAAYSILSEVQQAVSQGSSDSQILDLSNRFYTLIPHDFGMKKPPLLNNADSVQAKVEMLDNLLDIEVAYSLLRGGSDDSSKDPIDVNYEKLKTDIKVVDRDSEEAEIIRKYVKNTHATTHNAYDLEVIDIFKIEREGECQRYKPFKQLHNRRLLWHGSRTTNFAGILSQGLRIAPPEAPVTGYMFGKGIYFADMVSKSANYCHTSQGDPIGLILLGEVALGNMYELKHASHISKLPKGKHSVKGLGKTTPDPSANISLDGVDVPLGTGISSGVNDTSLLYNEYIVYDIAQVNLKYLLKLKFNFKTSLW

Molecule “DNA Ligase IIIalpha (LigIII), endogenous (from UniProt P49916 43-1009) (enzyme)” has a percent reduction of PLA association against WT FUS (Flag-FUS-R521H (human)) of over 80%.

B1: GST-FUS (natural protein, human, UniProt P35637 1-526, looked up)
chain: MASNDYTQQATQSYGAYPTQPGQGYSQQSSQPYGQQSYSGYSQSTDTSGYGQSSYSSYGQSQNTGYGTQSTPQGYGSTGGYGSSQSSQSSYGQQSSYPGYGQQPAPSSTSGSYGSSSQSSSYGQPQSGSYSQQPSYGGQQQSYGQQQSYNPPQGYGQQNQYNSSSGGGGGGGGGGNYGQDQSSMSSGGGSGGGYGNQDQSGGGGSGGYGQQDRGGRGRGGSGGGGGGGGGGYNRSSGGYEPRGRGGGRGGRGGMGGSDRGGFNKFGGPRDQGSRHDSEQDNSDNNTIFVQGLGENVTIESVADYFKQIGIIKTNKKTGQPMINLYTDRETGKLKGEATVSFDDPPSAKAAIDWFDGKEFSGNPIKVSFATRRADFNRGGGNGRGGRGRGGPMGRGGYGGGGSGGGGRGGFPSGGGGGGGQQRAGDWKCPNPTCENMNFSWRNECNQCKAPKPDGPGGGPGGSHMGGNYGDDRRGGRGGYDRGGYRGRGGDRGGFRGGRGGGDRGGFGPGKMDSRGEHRQDRRERPY
notes: FUS in pGEX6P-1, plasmid purchased from Addgene; The FUS of the ligation assays is named only 'purified FUS'; also called purified FUS; recombinant FUS; source: E. coli BL21, purified (glutathione-Sepharose 4B)
For B1, the “catalytic efficiency of LigIII in the nick ligation reaction of XRCC1/LigIII with or without FUS” value [1] was 4 fold, the “in vitro DNA nick ligation by XRCC1/LigIII complex (100 f.moles) with FUS 10-500 f.moles; fold change in ligated product” value [1] was about 5 fold and the binding result [2] was “binds”.
